Data on one protein can be found in paper PMC10991234, “An evolved pyrrolysyl-tRNA synthetase with polysubstrate specificity expands the toolbox for engineering enzymes with incorporation of noncanonical amino acids” (Bioresources and Bioprocessing, 2023).

Common to all, as to conditions: 100 mM Tris-HCl pH 8, 30°C, 1.5 µM PrCl3, 1.5 µM PQQ, 1 mM PES, 150 µM DCPIP
Substrate in data set [1]: CO
Kind of data set: dye-linked PES/DCPIP colorimetric assay, Michaelis-Menten fit. The data set is classed as biochemical, Pseudomonas putida.

Substrate in data set [2]: CC[C@H](C)O
Kind of data set: purified protein.

Substrate in data set [3]: CC[C@@H](C)O
The data set is described as follows: purified protein.

B1: PedH (Pseudomonas putida KT2440) (protein)
chain: AVSNEEILQDPKNPQQIVTNGLGVQGQRYSPLDLLNVNNVKELRPVWAFSFGGEKQRGQQAQPLIKDGVMYLTGSYSRVFAVDARTGKKLWQYDARLPDDIRPCCDVINRGVALYGNLVFFGTLDAKLVALNKDTGKVVWSKKVADHKEGYSISAAPMIVNGKLITGVAGGEFGVVGKIQAYNPENGELLWMRPTVEGHMGYVYKDGKAIENGISGGEAGKTWPGDLWKTGGAAPWLGGYYDPETNLILFGTGNPAPWNSHLRPGDNLYSSSRLALNPDDGTIKWHFQSTPHDGWDFDGVNELISFNYKDGGKEVKAAATADRNGFFYVLDRTNGKFIRGFPFVDKITWATGLDKDGRPIYNDASRPGAPGSEAKGSSVFVAPAFLGAKNWMPMAYNKDTGLFYVPSNEWGMDIWNEGIAYKKGAAFLGAGFTIKPLNEDYIGVLRAIDPVSGKEVWRHKNYAPLWGGVLTTKGNLVFTGTPEGFLQAFNAKTGDKVWEFQTGSGVLGSPVTWEMDGEQYVSVVSGWGGAVPLWGGEVAKRVKDFNQGGMLWTFKLPKQLQQTASVKP
notes: recombinant, pET-28a in E. coli BL21(DE3), purified on Ni-NTA; PQQ and Pr3+ added
As to B1, in data set [1], the Km – broadly, the substrate concentration at which the rate is half of its maximum – came to 1100 µM and the kcat – broadly, the maximal rate divided by the concentration of active sites – was found to be 0.15 s⁻¹. For the same protein, in “purified protein [2]”, the Km is 1070 ± 180 µM; the kcat stood at 0.43 ± 0.01 s⁻¹; the kcat/Km – broadly, the turnover number divided by the Michaelis constant – stood at 402 M⁻¹ s⁻¹. Moreover, in the data set “purified protein [3]”, the Michaelis-Menten constant (Km) amounted to 940 ± 130 µM, the kcat amounted to 0.42 ± 0.01 s⁻¹ and the kcat/Km was found to be 447 M⁻¹ s⁻¹.
